Reference: paper PMC8679783 (2021)

Target: RDO24_mFab2 (mouse, UniProt P01863 = IgG part)
Experiment: SPR

koff: 0.000335 s⁻¹
B1: recombinant human MET ECD-Fc (Recombinant Human HGFR/c-MET Fc Chimera His-tag Protein) (Fc fusion)
chain: ECKEALAKSEMNVNMKYQLPNFTAETPIQNVILHEHHIFLGATNYIYVLNEEDLQKVAEYKTGPVLEHPDCFPCQDCSSKANLSGGVWKDNINMALVVDTYYDDQLISCGSVNRGTCQRHVFPHNHTADIQSEVHCIFSPQIEEPSQCPDCVVSALGAKVLSSVKDRFINFFVGNTINSSYFPDHPLHSISVRRLKETKDGFMFLTDQSYIDVLPEFRDSYPIKYVHAFESNNFIYFLTVQRETLDAQTFHTRIIRFCSINSGLHSYMEMPLECILTEKRKKRSTKKEVFNILQAAYVSKPGAQLARQIGASLNDDILFGVFAQSKPDSAEPMDRSAMCAFPIKYVNDFFNKIVNKNNVRCLQHFYGPNHEHCFNRTLLRNSSGCEARRDEYRTEFTTALQRVDLFMGQFSEVLLTSISTFIKGDLTIANLGTSEGRFMQVVVSRSGPSTPHVNFLLDSHPVSPEVIVEHTLNQNGYTLVITGKKITKIPLNGLGCRHFQSCSQCLSAPPFVQCGWCHDKCVRSEECLSGTWTQQICLPAIYKVFPNSAPLEGGTRLTICGWDFGFRRNNKFDLKKTRVLLGNESCTLTLSESTMNTLKCTVGPAMNKHFNMSIIISNGHGTTQYSTFSYVDPVITSISPKYGPMAGGTLLTLTGNYLNSGNSRHISIGGKTCTLKSVSNSILECYTPAQTISTEFAVKLKIDLANRETSIFSYREDPIVYEIHPTKSFISGGSTITGVGKNLNSVSVPRMVINVHEAGRNFTVACQHRSNSEIICCTTPSLQQLNLQLPLKTKAFFMLDGILSKYFDLIYVHNPVFKPFEKPVMISMGNENVLEIKGNDIDPEAVKGEVLKVGNKSCENIHLHSEAVLCTVPNDLLKLNSELNIEWKQAISSTVLGKVIVQPDQNFT
